Data taken from paper doi:10.1101/2021.05.19.444834.

Assays:
[1] = biological target: doubly dehydrated C62A ThfA (Thermobifida fusca); assay: BLI
[2] = biological target: unmodified C62A ThfA (Thermobifida fusca); assay: BLI

Kd [1]: 18 nM | Kd [2]: 28 nM
Substance: maltose binding protein (MBP) fusion to ThfB (enzyme)
